Source: patent US12427210B2, “Compounds comprising a fibroblast activation protein ligand and use thereof” (priority 2019, dated 2025)

Key:
Assay in all cases: radioligand displacement, compound at 10 µM
Conditions in all cases: remark: other sources report otherwise
[1] = biological target: T1, ETA (h) (human), P25101
T1 chain: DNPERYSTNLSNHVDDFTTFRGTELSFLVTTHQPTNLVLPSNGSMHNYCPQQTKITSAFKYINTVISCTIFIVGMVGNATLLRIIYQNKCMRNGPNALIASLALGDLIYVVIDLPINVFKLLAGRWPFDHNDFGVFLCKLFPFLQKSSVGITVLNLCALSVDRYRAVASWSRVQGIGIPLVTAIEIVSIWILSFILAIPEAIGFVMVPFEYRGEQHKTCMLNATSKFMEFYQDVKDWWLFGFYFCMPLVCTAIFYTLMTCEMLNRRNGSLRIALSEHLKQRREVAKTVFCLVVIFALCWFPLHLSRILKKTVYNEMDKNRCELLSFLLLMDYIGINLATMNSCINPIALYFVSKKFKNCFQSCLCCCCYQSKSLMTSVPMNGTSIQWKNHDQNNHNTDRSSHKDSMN

[2] = biological target: T2, CCK1 (CCKA) (h) (human), P32238
T2 chain: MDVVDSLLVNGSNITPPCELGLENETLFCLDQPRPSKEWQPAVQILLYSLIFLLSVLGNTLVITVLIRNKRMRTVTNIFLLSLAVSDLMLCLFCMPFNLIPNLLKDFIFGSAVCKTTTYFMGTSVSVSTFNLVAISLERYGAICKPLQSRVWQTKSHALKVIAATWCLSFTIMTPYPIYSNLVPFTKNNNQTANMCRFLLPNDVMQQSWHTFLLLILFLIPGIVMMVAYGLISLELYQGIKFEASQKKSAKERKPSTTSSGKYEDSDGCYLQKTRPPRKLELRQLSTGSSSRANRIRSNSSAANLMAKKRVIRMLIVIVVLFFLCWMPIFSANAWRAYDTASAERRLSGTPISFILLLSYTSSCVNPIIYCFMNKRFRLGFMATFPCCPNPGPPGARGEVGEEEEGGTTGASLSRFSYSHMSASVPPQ

[3] = biological target: T3, 5-HT3 (h) (human), P46098
T3 chain: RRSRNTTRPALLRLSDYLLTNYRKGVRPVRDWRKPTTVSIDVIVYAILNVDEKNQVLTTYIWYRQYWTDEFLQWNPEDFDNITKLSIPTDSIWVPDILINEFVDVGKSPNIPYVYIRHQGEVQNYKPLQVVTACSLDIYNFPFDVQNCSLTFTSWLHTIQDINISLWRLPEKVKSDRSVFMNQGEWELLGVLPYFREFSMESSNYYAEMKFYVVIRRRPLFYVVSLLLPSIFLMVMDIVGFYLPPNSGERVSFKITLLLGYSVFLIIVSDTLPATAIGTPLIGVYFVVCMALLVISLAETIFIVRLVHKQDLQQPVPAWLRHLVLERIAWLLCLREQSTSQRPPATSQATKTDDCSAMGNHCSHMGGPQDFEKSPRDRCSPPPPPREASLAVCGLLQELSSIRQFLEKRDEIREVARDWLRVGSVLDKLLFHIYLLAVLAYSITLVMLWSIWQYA

[4] = biological target: CB2 (h) (human), P34972
[5] = substrate: N neuronal alpha 4beta 2 (h) (human), P43681
[6] = biological target: T4, D1 (h) (human), P21728
T4 chain: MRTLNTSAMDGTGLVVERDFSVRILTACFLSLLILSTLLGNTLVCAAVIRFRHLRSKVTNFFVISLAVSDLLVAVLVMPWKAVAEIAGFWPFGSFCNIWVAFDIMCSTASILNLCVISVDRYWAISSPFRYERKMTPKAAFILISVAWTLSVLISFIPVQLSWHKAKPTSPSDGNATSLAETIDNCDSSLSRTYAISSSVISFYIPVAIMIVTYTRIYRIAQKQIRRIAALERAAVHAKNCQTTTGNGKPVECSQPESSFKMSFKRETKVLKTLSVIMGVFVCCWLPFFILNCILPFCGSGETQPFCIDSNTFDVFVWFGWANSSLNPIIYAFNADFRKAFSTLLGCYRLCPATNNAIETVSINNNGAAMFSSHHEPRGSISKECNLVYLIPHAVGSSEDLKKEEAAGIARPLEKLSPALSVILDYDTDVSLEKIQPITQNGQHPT

[7] = biological target: T5, alpha 2A (h) (human), P08913
T5 chain: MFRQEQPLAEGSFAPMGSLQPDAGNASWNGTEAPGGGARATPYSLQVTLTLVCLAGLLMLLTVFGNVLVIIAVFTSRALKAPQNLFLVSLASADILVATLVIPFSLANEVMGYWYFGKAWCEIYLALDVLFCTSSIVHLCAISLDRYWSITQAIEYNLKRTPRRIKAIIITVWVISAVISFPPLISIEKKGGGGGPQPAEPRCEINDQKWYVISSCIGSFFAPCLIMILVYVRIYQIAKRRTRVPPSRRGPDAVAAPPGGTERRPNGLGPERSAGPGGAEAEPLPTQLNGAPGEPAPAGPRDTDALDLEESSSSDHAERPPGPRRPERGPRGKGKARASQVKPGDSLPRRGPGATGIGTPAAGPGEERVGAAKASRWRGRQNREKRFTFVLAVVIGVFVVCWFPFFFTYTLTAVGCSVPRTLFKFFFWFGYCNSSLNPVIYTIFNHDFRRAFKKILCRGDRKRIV

[8] = biological target: 5-HT2B (h) (human), P41595
[9] = biological target: T6, 5-HT1A (h) (human), P08908
T6 chain: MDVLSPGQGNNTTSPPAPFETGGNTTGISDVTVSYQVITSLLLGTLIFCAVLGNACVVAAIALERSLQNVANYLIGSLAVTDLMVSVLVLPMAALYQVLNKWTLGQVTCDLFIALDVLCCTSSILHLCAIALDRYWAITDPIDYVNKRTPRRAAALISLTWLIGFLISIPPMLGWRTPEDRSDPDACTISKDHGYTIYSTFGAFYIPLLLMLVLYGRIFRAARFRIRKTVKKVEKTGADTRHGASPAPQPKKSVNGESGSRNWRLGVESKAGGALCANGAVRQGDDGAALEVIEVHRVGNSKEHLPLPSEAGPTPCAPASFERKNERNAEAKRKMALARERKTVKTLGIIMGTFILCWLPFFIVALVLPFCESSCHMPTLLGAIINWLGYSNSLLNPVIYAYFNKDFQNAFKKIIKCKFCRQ

Sequence of CB2 (h) (human), P34972 (P34972 whole entry): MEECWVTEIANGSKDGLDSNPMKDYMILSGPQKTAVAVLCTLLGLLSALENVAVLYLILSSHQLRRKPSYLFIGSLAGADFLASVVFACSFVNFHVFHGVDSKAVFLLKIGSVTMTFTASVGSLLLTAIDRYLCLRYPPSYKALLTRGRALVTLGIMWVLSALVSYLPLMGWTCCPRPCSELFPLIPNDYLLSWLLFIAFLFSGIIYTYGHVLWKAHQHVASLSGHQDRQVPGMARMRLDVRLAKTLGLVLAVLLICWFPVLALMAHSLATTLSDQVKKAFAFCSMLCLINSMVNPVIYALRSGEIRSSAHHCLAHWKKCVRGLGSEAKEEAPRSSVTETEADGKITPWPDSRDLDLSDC
Sequence of 5-HT2B (h) (human), P41595 (P41595 whole entry): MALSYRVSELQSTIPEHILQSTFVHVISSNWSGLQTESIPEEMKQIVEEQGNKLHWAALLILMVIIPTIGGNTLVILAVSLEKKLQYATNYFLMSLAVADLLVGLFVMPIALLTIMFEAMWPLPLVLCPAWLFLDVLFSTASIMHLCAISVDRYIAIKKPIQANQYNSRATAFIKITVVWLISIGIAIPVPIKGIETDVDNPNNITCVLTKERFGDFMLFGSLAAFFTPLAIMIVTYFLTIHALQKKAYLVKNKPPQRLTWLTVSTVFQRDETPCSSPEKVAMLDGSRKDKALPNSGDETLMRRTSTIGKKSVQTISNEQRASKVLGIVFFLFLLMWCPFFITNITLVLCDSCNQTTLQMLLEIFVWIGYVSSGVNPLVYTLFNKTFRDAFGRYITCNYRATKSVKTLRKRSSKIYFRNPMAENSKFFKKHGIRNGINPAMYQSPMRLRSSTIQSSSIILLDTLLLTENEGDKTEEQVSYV

B1: Hex-[Cys(tMeBn(DOTA-PP))-Pro-Pro-Thr-Gln-Phe-Cys]-Asp-NH2 (3BP-3407) (peptide)
peptide: CPPTQFCD
modifications: here or on the partner: N-terminal hexanoyl (Hex); Cys1 and Cys7 cyclised through tMeBn carrying DOTA-PP; C-terminal amide
B1 was tested, and the % Inhibition of Specific Binding [1] was -18%, the % Inhibition of Specific Binding [2] was 24% and the % Inhibition of Specific Binding [3] was 2%. It also gave a % Inhibition of Specific Binding [4] of 2%, a % Inhibition of Specific Binding [5] of -8% and a % Inhibition of Specific Binding [6] of 0%. For the same binder, the % Inhibition of Specific Binding [7] was -9%, the % Inhibition of Specific Binding [8] was 2% and the % Inhibition of Specific Binding [9] was -3%.

B2: Hex-[Cys(tMeBn(DOTA-AET))-Pro-Pro-Thr-Gln-Phe-Cys]-OH (3BP-3554) (peptide)
peptide: CPPTQFC
modifications: here or on the partner: N-terminal hexanoyl (Hex); Cys1 and Cys7 cyclised through tMeBn carrying DOTA-AET; free C-terminal acid (-OH)
With B2 the % Inhibition of Specific Binding [1] was 6%, the % Inhibition of Specific Binding [2] was 16% and the % Inhibition of Specific Binding [3] was 4%. For the same binder, the % Inhibition of Specific Binding [4] was -5%, the % Inhibition of Specific Binding [5] was -2% and the % Inhibition of Specific Binding [6] was 7%. For the same binder, the % Inhibition of Specific Binding [7] was 2%, the % Inhibition of Specific Binding [8] was 3% and the % Inhibition of Specific Binding [9] was -5%.
